Where a chain is given by its changes, count along the chain named.
T1: recombinant cynomolgus NKG2D-Fc (cynomolgus; human, UniProt P61252 73-216)
T1 construct: extracellular domain; also called cynomolgus NKG2D-Fc fusion protein; not shown: human IgG1 Fc domain
T1 sequence (looked up): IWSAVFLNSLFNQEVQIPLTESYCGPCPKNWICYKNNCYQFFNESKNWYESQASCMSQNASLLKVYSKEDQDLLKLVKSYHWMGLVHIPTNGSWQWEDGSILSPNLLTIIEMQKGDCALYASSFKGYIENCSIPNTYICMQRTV

T2: recombinant human NKG2D-Fc (human, UniProt P26718 73-216)
T2 construct: extracellular domain; also called human NKG2D-Fc fusion protein; NKG2D-Fc-biotin; not shown: human IgG1 Fc domain
T2 sequence (looked up): T1 sequence (looked up) with N43D, I133T

T3: recombinant mouse NKG2D-Fc (mouse; human, UniProt O54709 90-232)
T3 construct: extracellular domain; also called mouse NKG2D-Fc fusion protein; Mouse NKG2D-Fc-biotin; not shown: human IgG1 Fc domain
T3 sequence (looked up): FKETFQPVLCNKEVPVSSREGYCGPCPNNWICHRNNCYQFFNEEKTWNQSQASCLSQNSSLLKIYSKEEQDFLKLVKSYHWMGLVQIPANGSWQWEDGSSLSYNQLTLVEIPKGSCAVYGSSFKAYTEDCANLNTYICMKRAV

B1: ADI-27705 (antibody, V domains shown)
VH: QVQLQQWGAGLLKPSETLSLTCAVYGGSFSGYYWSWIRQPPGKGLEWIGEIDHSGSTNYNPSLKSRVTISVDTSKNQFSLKLSSVTAADTAVYYCARARGPWSFDPWGQGTLVTVSS
VL: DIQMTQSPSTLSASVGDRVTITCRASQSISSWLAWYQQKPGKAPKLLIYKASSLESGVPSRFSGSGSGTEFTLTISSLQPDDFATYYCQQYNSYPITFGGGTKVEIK
B2: ADI-29403 (antibody, V domains shown)
VH: B1 VH
VL: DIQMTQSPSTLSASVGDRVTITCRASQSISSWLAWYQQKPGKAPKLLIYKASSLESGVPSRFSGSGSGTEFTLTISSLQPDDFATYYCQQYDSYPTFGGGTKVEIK
B3: C26-TriNKET-FLT3-4G8 (bispecific antibody, V domains shown)
VH 1: B1 VH
VL 1: DIQMTQSPSTLSASVGDRVTITCRASQSISSWLAWYQQKPGKAPKLLIYKASSLESGVPSRFSGSGSGTEFTLTISSLQPDDFATYYCQQYGSFPITFGGGTKVEIK
VH 2: QVQLQQPGAELVKPGASLKLSCKSSGYTFTSYWMHWVRQRPGHGLEWIGEIDPSDSYKDYNQKFKDKATLTVDRSSNTAYMHLSSLTSDDSAVYYCARAITTTPFDFWGQGTTLTVSS
VL 2: DIVLTQSPATLSVTPGDSVSLSCRASQSISNNLHWYQQKSHESPRLLIKYASQSISGIPSRFSGSGSGTDFTLSINSVETEDFGVYFCQQSNTWPYTFGGGTKLEIKR
notes: also called C26-TriNKET-4G8
B4: ADI-29399 (antibody, V domains shown)
VH: B1 VH
VL: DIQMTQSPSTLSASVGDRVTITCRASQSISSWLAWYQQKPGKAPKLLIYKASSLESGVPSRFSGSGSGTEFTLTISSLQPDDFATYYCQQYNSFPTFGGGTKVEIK
B5: ADI-27740 (antibody, V domains shown)
VH: B1 VH
VL: DIQMTQSPSTLSASVGDRVTITCRASQSIGSWLAWYQQKPGKAPKLLIYKASSLESGVPSRFSGSGSGTEFTLTISSLQPDDFATYYCQQYHSFYTFGGGTKVEIK
notes: also called A40
B6: ADI-29419 (antibody, V domains shown)
VH: B1 VH
VL: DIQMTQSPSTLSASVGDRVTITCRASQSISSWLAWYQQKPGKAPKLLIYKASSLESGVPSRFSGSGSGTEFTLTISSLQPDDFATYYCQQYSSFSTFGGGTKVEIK
B7: ADI-29407 (antibody, V domains shown)
VH: B1 VH
VL: B5 VL with G30S, H92Q, Y95P
B8: ADI-29429 (antibody, V domains shown)
VH: B1 VH
VL: B3 VL 1 with S30G, G92E, S93L, F94Y, P95S, I96Y
B9: ADI-29401 (antibody, V domains shown)
VH: B1 VH
VL: B5 VL with H92D, S93I, F94Y, Y95P
B10: ADI-29447 (antibody, V domains shown)
VH: B1 VH
VL: B5 VL with G30S, H92D, S93T, Y95I
notes: also called F47
B11: ADI-27743 (antibody, V domains shown)
VH: B1 VH
VL: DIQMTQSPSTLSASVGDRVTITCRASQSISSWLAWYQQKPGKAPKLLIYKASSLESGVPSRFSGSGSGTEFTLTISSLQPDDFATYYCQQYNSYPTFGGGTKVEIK
B12: ADI-29421 (antibody, V domains shown)
VH: B1 VH
VL: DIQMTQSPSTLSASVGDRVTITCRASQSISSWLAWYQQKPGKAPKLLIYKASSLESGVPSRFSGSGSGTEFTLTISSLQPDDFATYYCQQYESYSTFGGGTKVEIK
B13: ADI-27741 (antibody, V domains shown)
VH: B1 VH
VL: B5 VL with Y91S, H92N, F94Y
B14: ADI-28226 (antibody, V domains shown)
VH: B1 VH
VL: B3 VL 1
notes: also called C26
B15: ADI-29426 (antibody, V domains shown)
VH: B1 VH
VL: B5 VL with Y95P
B16: ADI-29424 (antibody, V domains shown)
VH: B1 VH
VL: B5 VL with G30S, H92D, Y95I
B17: ADI-29404 (antibody, V domains shown)
VH: B1 VH
VL: B5 VL with G30S, Q89E, H92D, F94Y, Y95P
notes: also called F04
B18: ADI-29405 (antibody, V domains shown)
VH: B1 VH
VL: B5 VL with G30S, H92G, Y95P
B19: ADI-29425 (antibody, V domains shown)
VH: B1 VH
VL: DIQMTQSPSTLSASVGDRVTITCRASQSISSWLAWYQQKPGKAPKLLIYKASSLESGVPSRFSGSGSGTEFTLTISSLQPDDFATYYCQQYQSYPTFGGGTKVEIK
B20: ADI-29378 (antibody, V domains shown)
VH: QVQLVQSGAEVKKPGASVKVSCKASGYTFTSYYMHWVRQAPGQGLEWMGIINPSGGSTSYAQKFQGRVTMTRDTSTSTVYMELSSLRSEDTAVYYCAREGAGFAYGMDYYYMDVWGKGTTVTVSS
VL: EIVLTQSPATLSLSPGERATLSCRASQSVSSYLAWYQQKPGQAPRLLIYDASNRATGIPARFSGSGSGTDFTLTISSLEPEDFAVYYCQQSDNWPFTFGGGTKVEIK
notes: also called E78
B21: ADI-27727 (antibody, V domains shown)
VH: QVQLVQSGAEVKKPGSSVKVSCKASGGTFSSYAISWVRQAPGQGLEWMGGIIPIFGTANYAQKFQGRVTITADESTSTAYMELSSLRSEDTAVYYCARGDSSIRHAYYYYGMDVWGQGTTVTVSS
VL: not shown
B22: A49-TriNKET-FLT3-IMCEB10 (bispecific antibody, V domains shown)
VH 1: EVQLVESGGGLVKPGGSLRLSCAASGFTFSSYSMNWVRQAPGKGLEWVSSISSSSSYIYYADSVKGRFTISRDNAKNSLYLQMNSLRAEDTAVYYCARGAPMGAAAGWFDPWGQGTLVTVSS
VL 1: B3 VL 1 with T10S, L11V, S28G, K50A, E55Q, E70D, D81E, Y91G, G92V, I96R
VH 2: EVQLVQSGAEVKKPGASVKVSCKASGYTFTSYYMHWVRQAPGQGLEWMGIINPSGGSTSYAQKFQGRVTMTRDTSTSTVYMELSSLRSEDTAVYYCARGVGAHDAFDIWGQGTTVTVSSA
VL 2: DVVMTQSPLSLPVTPGEPASISCRSSQSLLHSNGNNYLDWYLQKPGQSPQLLIYLGSNRASGVPDRFSGSGSDTDFTLQISRVEAEDVGVYYCMQGTHPAISFGQGTRLEIKR
notes: also called A49-TriNKET-IMCEB10
B23: ADI-27749 (antibody, V domains shown)
VH: B22 VH 1
VL: B3 VL 1 with T10S, L11V, S28G, K50A, E55Q, E70D, D81E, Y91G, G92V, I96R
notes: also called A49
B24: A49-TriNKET-FLT3-4G8 (bispecific antibody, V domains shown)
VH 1: B22 VH 1
VL 1: B3 VL 1 with T10S, L11V, S28G, K50A, E55Q, E70D, D81E, Y91G, G92V, I96R
VH 2: B3 VH 2
VL 2: B3 VL 2
notes: also called A49-TriNKET-4G8

How the values were obtained:
[1] = biological target: T1, recombinant cynomolgus NKG2D-Fc; assay: ELISA, NKG2D-Fc coated
[2] = biological target: T2, recombinant human NKG2D-Fc; assay: ELISA, NKG2D-Fc coated
[3] = biological target: T3, recombinant mouse NKG2D-Fc; assay: ELISA, NKG2D-Fc coated
[4] = biological target: T4, FLT3 expressed on human AML cell lines Molm-13 and EOL-1 (human, UniProt P36888 27-993); assay: flow cytometry on Molm-13 and EOL-1 cells
T4 construct: the FLT3 in the assay is that carried by the cell lines themselves; also called FMS-like tyrosine kinase-3
Protocol: Human AML cell lines (Molm-13 and EOL-1) expressing FLT3 were used to assay the binding of FLT3-targeting TriNKETs to the tumor-associated antigen. TriNKETs were incubated with the cells, and the binding was detected using fluorophore-conjugated anti-human IgG secondary antibodies. Cells were analyzed by flow cytometry and mean fluorescence intensity (MFI) was normalized to secondary antibody controls to obtain fold over background (FOB) values.

Row | Binder | binding result [1] | binding result [2] | binding result [3] | binding result [4]
1 | B1 | binds | binds | binds | –
2 | B2 | binds | binds | binds | –
3 | B3 | – | – | – | binds
4 | B4 | binds | binds | binds | –
5 | B5 | binds | binds | binds | –
6 | B6 | binds | binds | binds | –
7 | B7 | binds | binds | binds | –
8 | B8 | binds | binds | binds | –
9 | B9 | binds | binds | binds | –
10 | B10 | binds | binds | binds | –
11 | B11 | binds | binds | binds | –
12 | B12 | binds | binds | binds | –
13 | B13 | binds | binds | binds | –
14 | B14 | binds | binds | binds | –
15 | B15 | binds | binds | binds | –
16 | B16 | binds | binds | binds | –
17 | B17 | binds | binds | binds | –
18 | B18 | binds | binds | binds | –
19 | B19 | binds | binds | binds | –
20 | B20 | binds | binds | binds | –
21 | B21 | binds | binds | binds | –
22 | B22 | – | – | – | binds
23 | B23 | binds | binds | binds | –
24 | B24 | – | – | – | binds
